Source: US20050171004A1, “Use of cardiotrophin-1 to promote wound healing and counteract overt fibrosis” (priority 2003, published 2005)

How the values were obtained:
[1] = test system: cardiac fibroblasts; test: Protein synthesis assay (3H-leucine incorporation); format: cell-based, rat; conditions: CT-1 for 24 hours
Protocol: Protein synthesis was determined using the methods of Wolf and Neilson (Wolf and Neilson, 1990, Am J Physiol 259: 768-777). 2.5×10^4 cells (counted with a hemacytometer) were loaded into each well of 24-well plates, allowed to attach overnight, then rendered quiescent in serum free DMEM/F12 for 24 hours. Cells were stimulated with CT-1 for an additional 24 hours in the presence of 2 μCi/mL ^3H-leucine with or without inhibitors of signaling pathways. The culture media was aspirated, cells rinsed twice with phosphate buffered saline and proteins precipitated by two incubations with 10% TCA at room temperature. The precipitated protein was solubilized in 300 μl lysis buffer containing 0.5 M NaOH and 1% Triton X-100 at room temperature for 15 minutes. The lysate was transferred to scintillation vials, and beta emission was determined with 3 ml Ecolume scintillation fluid (ICN Pharmaceuticals) and a scintillation counter (LS6500, Beckman Coulter, Fullerton, Calif.).

[2] = test system: cardiac fibroblasts; test: Western analysis of myosin light chain phosphorylation; format: cell-based, rat; conditions: CT-1 10 ng/mL
Protocol: (§1) Protein concentrations of tissue and cell lysates were determined by the BCA method (Smith et al., 1985, Anal Biochem 150: 76-85). Proteins were separated by 8-12% SDS-PAGE and transferred to PVDF membrane (Roche, Indianapolis, Ind.) for 1 hour at 300 mA for small proteins or for 2 hours at 500 mA for proteins greater than 100 kDa. Membranes were blocked with 5% non-fat skim milk in tris-buffered saline containing 0.2% Tween 20 (TBST). Proteins were visualized with ECL Plus (Amersham) after probing with primary and secondary antibodies. Band intensity was quantified using a CCD camera imaging densitometer (GS670, Bio-Rad Laboratories (Canada) Ltd. Mississauga, Ontario).
The infarct zone is repopulated by interstitial fibroblasts that infiltrate the scar after MI. […] Similar results were obtained when using the Costar Transwell® system (data not shown). To determine how the chemotactic response is transduced, we used specific inhibitors of intracellular signaling pathways. […] This effect could be blunted by co-incubation with AG490 (FIG. 22). […] Since activation of myosin motors is required for effective cell migration, and CT-1 induced migration could be inhibited by co-incubation with a myosin light chain kinase inhibitor, we sought to determine the effect of CT-1 on the phosphorylation status of myosin light chain. Myosin light chain regulates the ATPase activity of myosin heavy chain, and thus overall contractile activity. […] Myosin light chain phosphorylation could be prevented by co-incubation with ML-7 or W7 but not AG490 or PP2 (FIG. 25b).

[3] = test system: cardiac fibroblasts; test: Wounded monolayer model, cortactin immunostaining; format: cell-based, rat; conditions: 4 hours after creation of the wound
Protocol: Cardiac fibroblasts were seeded onto coverslips in 6-well dishes and allowed to proliferate. Once the cells were near confluency, they were serum deprived for 24 hours. A scrape was made down the middle of the coverslip with the blunt end of a 1 ml syringe and the media was changed again. Cells were further incubated in the presence or absence of CT-1 and inhibitors at specified concentrations for specified times. The cells were then subjected to immunofluorescence staining as described herein.

[4] = test system: cardiac fibroblasts; test: 3H-thymidine incorporation (DNA synthesis) proliferation assay; format: cell-based, rat
Protocol: DNA synthesis was measured by uptake of ^3H-thymidine as previously described (Saward and Zahradka, 1997, Mol Cell Biochem 176: 53-59) with modification. Briefly, 2.5×10^4 cells (counted with a hemacytometer) in DMEM/F12 with 10% FBS were loaded into each well of 24-well culture plates, allowed to attach overnight and rendered quiescent in serum-free DMEM with 100 μM ascorbate for 24 hours. S-phase re-entry in response to CT-1 was measured in two ways: pulse labeling with ^3H-thymidine for 30 minutes every 6 hours, or labeling for the last 30 minutes of 6 or 12 hour incubation. DNA in cell lysate was precipitated with cold 20% trichloroacetic acid (TCA) and filtered through GF/A filters (Fisher). Beta emission from the dried filers was measured with Cytoscint scintillation fluid (ICN Pharmaceuticals, Costa Mesa, Calif.) and a scintillation counter (LS6500, Beckman Coulter, Fullerton, Calif.).

[5] = test system: cardiac fibroblasts; test: Collagen synthesis (P1CP radioimmunoassay of conditioned media); format: cell-based, rat; conditions: CT-1 for 24 hours
Protocol: Synthesis of mature type I collagen was determined by measuring the concentration of the carboxyterminal propeptide of type I collagen (P1CP) in conditioned media from CT-1 treated or untreated cardiac fibroblasts. 5×10^4 cells were loaded into each well of a 6 well plate, allowed to attach overnight, and serum starved for 24 hours. Cells were treated with CT-1 at specified concentrations for an additional 24 or 48 hours. P1CP content in 0.1 mL conditioned media was determined by radioimmunoassay according to the manufacturer's specification (Diasorin Inc, Stillwater, Minn.). Radioactivity was quantified with a gamma counter (Gamma 5500, Beckman Coulter, Fullerton, Calif.) and the concentration of P1CP was determined by the % B/B0 versus log concentration.

[6] = test system: cardiac fibroblasts; test: Western analysis of cell cycle regulatory proteins (cyclins, Rb); format: cell-based, rat
Protocol: as §1
Cardiac fibroblasts were isolated from the ventricles of rats and incubated with CT-1 for specified times and at specified concentrations. […] Addition of CT-1 results in S-phase re-entry within 6 hours of stimulation (FIG. 7). […] (FIG. 8). […] To determine the effect of CT-1 on cell cycle regulatory proteins, we incubated cardiac fibroblasts with CT-1 and lysed them at specified times. […] To determine if increased DNA synthesis was accompanied by an increase in cell number, we repeated the experiments in the absence of ^3H-thymidine, detached the cells from the plates and counted the total number of cells.

[7] = test system: rat cardiac fibroblasts; test: Boyden chamber migration assay; format: cell-based
Protocol: Migration of rat cardiac fibroblasts was measured using Boyden chamber (Neuro Probe Inc. Gaithersburg, Md.) assay (Richards and McCullough, 1984, Immunol Commun 13: 49-62). Chemoattractants were diluted in DMEM/F12 and loaded into the lower wells at specified concentrations. The polycarbonate membrane (5 μm pore) was placed over the wells, and 55 μL cell suspension in DMEM/F12 supplemented with 100 μM ascorbate was loaded into each well (1000 cells/mm^2). The chamber was incubated overnight in 5% CO2 and 100% humidity at 37° C. Cells that had migrated through the membrane and become adherent to the lower surface were fixed with methanol and stained with Diff-Quick stain (Dade Behring AG, Düdingen, Switzerland). Cell migration was determined by counting the number of cells per high power field.

B1: cardiotrophin-1 (protein, UniProt Q16619 1-201, looked up)
Cardiotrophin-1: MSRREGSLEDPQTDSSVSLLPHLEAKIRQTHSLAHLLTKYAEQLLQEYVQLQGDPFGLPSFSPPRLPVAGLSAPAPSHAGLPVHERLRLDAAALAALPPLLDAVCRRQAELNPRAPRLLRRLEDAARQARALGAAVEALLAALGAANRGPRAEPPAATASAASATGVFPAKVLGLRVCGLYREWLSRTEGDLGQLLPGGSA
notes: gp130 signaling cytokine of the LIF or IL-6 superfamily; 201 amino acids as a mature protein, 21.5 kDa
protein synthesis (3H-leucine incorporation) [1]: dose-dependent increase in protein synthesis
phosphorylation of myosin light chain at threonine 18/serine 19 [2]: induced phosphorylation
localization of cortactin [3]: at the leading edge of lamellipodia
CT-1 dose of peak 3H thymidine incorporation (maximal DNA synthesis) ([4]; 6 or 12 hours incubation): 10 to 20 ng/mL
lowest CT-1 concentration with elevated incorporation of 3H thymidine ([4]; 6 or 12 hours incubation): 1 ng/mL
pathway dependence of CT-1 induced cell proliferation (DNA synthesis) ([4]; pretreatment with inhibitors, CT-1 10 ng/mL for 12 hours): dependent on Jak, P13-K, MAPK, and Src kinases
time to S-phase re-entry after addition of CT-1 ([4]; quiescent cells, 10 ng/mL CT-1, 3H-thymidine pulse labeling): ≤ 6 h
P1CP expression normalized to the number of cells at the end of the experiment ([5]; corrected for cell number): apparent decrease in overall mature collagen synthesis
expression of P1CP in the culture media (mature collagen synthesis) ([5]; not normalized): increased expression of P1CP
phosphorylation of the retinoblastoma protein ([6]; Rb pS795, pS807/811): hyperphosphorylation
expression of cyclins ([6]; cyclins A, E, CT-1 for specified times): increase in expression of cyclins
cardiac fibroblast migration ([7]; CT-1 gradient, overnight): induced cardiac fibroblast migration in a dose dependent manner
dependence of CT-1 induced migration ([7]; ion channel and myosin light chain kinase function): dependent on functioning potassium channels and myosin light chain kinase
dependence of CT-1 chemotaxis ([7]; specific inhibitors of signaling pathways, integrin inhibitors): dependent on intracellular signaling pathways
